Here are results for 2 proteins from patent US20020102534A1 (INSTITUT PASTEUR AND INSTITUT NATIONAL DE LA SANTE ET DE LA …, published 2002).

This data set deals with the molecule itself. Put plainly: yeast two-hybrid bait-prey matrix (LacZ and HIS3 reporters).

B1: HCV core protein, full-length (capsid) (other)
chain: MSTNPKPQRKTKRNTNRRPQDVKFPGGGQIVGGVYLLPRRGPRLGVRATRKTSERSQPRGRRQPIPKARRPEGRTWAQPGYPWPLYGNEGCGWAGWLLSPRGSRPSWGPTDPRRRSRNLGKVIDTLTCGFADLMGYIPLVGAPLGGAARALAHGVRVLEDGVNYATGNLPGCSFSIFLLALLSCLTVPASA
notes: mature; also called capsid protein; p22
For the protein B1, the binding result is “no binding”.

B2: truncated HCV capsid protein C-delta-115 (other)
chain: MSTNPKPQRKTKRNTNRRPQDVKFPGGGQIVGGVYLLPRRGPRLGVRATRKTSERSQPRGRRQPIPKARRPEGRTWAQPGYPWPLYGNEGCGWAGWLLSPRGSRPSWGPTDPRRR
notes: also called CD115; CoreD115
As for B2, the binding result is “binds”.
